This passage reports stoichiometry N results from publication PMC9825189.

The assay addresses Csx30 (purified, for ITC) (Candidatus 'Scalindua brodae'). As to the kind of experiment: ITC. For orientation: Isothermal titration calorimetry measures the heat released or taken up as one component is titrated into another.

For orientation: stoichiometry N means the number of molecules, sites or subunits per partner or assembly. “RpoE (purified, for ITC) (natural protein)” displayed a stoichiometry N of 1.
